The text below walks through data of doi:10.1101/2023.10.27.564484, “Insights into Molecular Diversity within the FET Family: Unraveling Phase Separation of the N-Terminal Low Complexity Domain from RNA-Binding Protein EWS” (bioRxiv, 2023).

The chains are these.
B1: EWS low-complexity domain (N-terminal 264 residues of RNA-binding protein EWS) [not stated] / itself (parent)
chain: GAMASTDYSTYSQAAAQQGYSAYTAQPTQGYAQTTQAYGQQSYGTYGQPTDVSYTQAQTTATYGQTAYATSYGQPPTGYTTPTAPQAYSQPVQGYGTGAYDTTTATVTTTQASYAAQSAYGTQPAYPAYGQQPAATAPTRPQDGNKPTETSQPQSSTGGYNQPSLGYGQSNYSYPQVPGSYPMQPVTAPPSYPPTSYSSTQPTSYDQSSYSQQNTYGQPSSYGQQSSYGQQSSYGQQPPTSYPPQTGSYSQAPSQYSQQSSSYGQQ

The variants in the test derive from B1. Kind of test: pelleting assay (phase separation). To be noted: with itself; 50 µM protein, 150 mM NaCl, 20 mM Tris pH 7.4; read off a plot.
As for GAMASTDYSTYSQAAAQQGYSAYTAQPTQGYAQTTQAYGQQSYGTYGQPTDVSYTQAQTTATYGQTAYATSYGQPPTGYTTPTAPQAYSQPVQGYGTGAYDTTTATVTTTQASYAAQSAYGTQPAYPAYGQQPAATAPTRPQDGNKPTETSQPQSSTGGYNQPSLGYGQSNYSYPQVPGSYPMQPVTAPPSYPPTSYSSTQPTSYDQSSSSQQNTYGQPSSYGQQSSYGQQSSYGQQPPTSYPPQTGSYSQAPSQYSQQSSSYGQQ [chain 1 Y210S], the screen value came to 0.5.

As for GAMASTDYSTYSQAAAQQGYSAYTAQPTQGYAQTTQAYGQQSYGTYGQPTDVSYTQAQTTATYGQTAYATSYGQPPTGYTTPTAPQAYSQPVQGYGTGAYDTTTATVTTTQASYAAQSAYGTQPAYPAYGQQPAATAPTRPQDGNKPTETSQPQSSTGGYNQPSLGYGQSNSSSPQVPGSYPMQPVTAPPSYPPTSYSSTQPTSYDQSSYSQQNTYGQPSSYGQQSSYGQQSSYGQQPPTSYPPQTGSYSQAPSQYSQQSSSYGQQ [chain 1 Y172S Y174S], the screen value turned out to be 0.81.

Regarding GAMASTDYSTYSQAAAQQGYSAYTAQPTQGYAQTTQAYGQQSYGTSGQPTDVSYTQAQTTATYGQTAYATSYGQPPTGYTTPTAPQAYSQPVQGYGTGAYDTTTATVTTTQASYAAQSAYGTQPAYPAYGQQPAATAPTRPQDGNKPTETSQPQSSTGGYNQPSLGYGQSNYSYPQVPGSYPMQPVTAPPSYPPTSYSSTQPTSYDQSSYSQQNTYGQPSSYGQQSSYGQQSSYGQQPPTSYPPQTGSYSQAPSQYSQQSSSYGQQ [chain 1 Y46S], the screen value was found to be 0.64.

As for GAMASTDYSTYSQAAAQQGYSAYTAQPTQGYAQTTQAYGQQSYGTYGQPTDVSYTQAQTTATYGQTAYATSYGQPPTGYTTPTAPQAYSQPVQGYGTGAYDTTTATVTTTQASYAAQSAYGTQPAYPAYGQQPAATAPTRPQDGNKPTETSQPQSSTGGYNQPSLGYGQSNYSSPQVPGSYPMQPVTAPPSYPPTSYSSTQPTSYDQSSYSQQNTYGQPSSYGQQSSYGQQSSYGQQPPTSYPPQTGSYSQAPSQYSQQSSSYGQQ [chain 1 Y174S], the screen value worked out at 0.75.

For the variant GAMASTDYSTYSQAAAQQGYSAYTAQPTQGYAQTTQAYGQQSYGTYGQPTDVSYTQAQTTATYGQTAYATSYGQPPTGYTTPTAPQAYSQPVQGYGTGAYDTTTATVTTTQASYAAQSAYGTQPAYPAYGQQPAATAPTRPQDGNKPTETSQPQSSTGGYNQPSLGYGQSSYSYPQVPGSYPMQPVTAPPSYPPTSYSSTQPTSYDQSSYSQQNTYGQPSSYGQQSSYGQQSSYGQQPPTSYPPQTGSYSQAPSQYSQQSSSYGQQ [chain 1 N171S], the screen value came to 0.6.
